Reference: patent US20220040297A1 (Chugai, published 2022)

B1: CE115HA000 T28S (antibody, name in Kabat numbering, V domains shown)
VH: QVQLVESGGGVVQPGRSLRLSCAASGFSFSNAWMHWVRQAPGKGLEWVAQIKAKSNNYATYYAESVKGRFTISRDDSKNSLYLQMNSLKTEDTAVYYCRYVHYGAYYGVDAWGQGTTVTVSS
VL: DIVMTQSPLSLPVTPGEPASISCRSSQSLVHSNRNTYLHWYQQKPGQAPRLLIYKVSNRFSGVPDRFSGSGSGTDFTLKISRVEAEDVGVYYCGQGTQVPYTFGQGTKLEIK
B2: CE115HA000 W33Y (antibody, name in Kabat numbering, V domains shown)
VH: QVQLVESGGGVVQPGRSLRLSCAASGFTFSNAYMHWVRQAPGKGLEWVAQIKAKSNNYATYYAESVKGRFTISRDDSKNSLYLQMNSLKTEDTAVYYCRYVHYGAYYGVDAWGQGTTVTVSS
VL: DIVMTQSPLSLPVTPGEPASISCRSSQSLVHSNRNTYLHWYQQKPGQAPRLLIYKVSNRFSGVPDRFSGSGSGTDFTLKISRVEAEDVGVYYCGQGTQVPYTFGQGTKLEIK
B3: CE115HA000 W33D (antibody, name in Kabat numbering, V domains shown)
VH: QVQLVESGGGVVQPGRSLRLSCAASGFTFSNADMHWVRQAPGKGLEWVAQIKAKSNNYATYYAESVKGRFTISRDDSKNSLYLQMNSLKTEDTAVYYCRYVHYGAYYGVDAWGQGTTVTVSS
VL: DIVMTQSPLSLPVTPGEPASISCRSSQSLVHSNRNTYLHWYQQKPGQAPRLLIYKVSNRFSGVPDRFSGSGSGTDFTLKISRVEAEDVGVYYCGQGTQVPYTFGQGTKLEIK
B4: CE115HA000 Y55S (antibody, name in Kabat numbering, V domains shown)
VH: QVQLVESGGGVVQPGRSLRLSCAASGFTFSNAWMHWVRQAPGKGLEWVAQIKAKSNNSATYYAESVKGRFTISRDDSKNSLYLQMNSLKTEDTAVYYCRYVHYGAYYGVDAWGQGTTVTVSS
VL: DIVMTQSPLSLPVTPGEPASISCRSSQSLVHSNRNTYLHWYQQKPGQAPRLLIYKVSNRFSGVPDRFSGSGSGTDFTLKISRVEAEDVGVYYCGQGTQVPYTFGQGTKLEIK
B5: CE115HA000 W33H (antibody, name in Kabat numbering, V domains shown)
VH: QVQLVESGGGVVQPGRSLRLSCAASGFTFSNAHMHWVRQAPGKGLEWVAQIKAKSNNYATYYAESVKGRFTISRDDSKNSLYLQMNSLKTEDTAVYYCRYVHYGAYYGVDAWGQGTTVTVSS
VL: DIVMTQSPLSLPVTPGEPASISCRSSQSLVHSNRNTYLHWYQQKPGQAPRLLIYKVSNRFSGVPDRFSGSGSGTDFTLKISRVEAEDVGVYYCGQGTQVPYTFGQGTKLEIK
B6: CE115HA000 T57A (antibody, name in Kabat numbering, V domains shown)
VH: QVQLVESGGGVVQPGRSLRLSCAASGFTFSNAWMHWVRQAPGKGLEWVAQIKAKSNNYAAYYAESVKGRFTISRDDSKNSLYLQMNSLKTEDTAVYYCRYVHYGAYYGVDAWGQGTTVTVSS
VL: DIVMTQSPLSLPVTPGEPASISCRSSQSLVHSNRNTYLHWYQQKPGQAPRLLIYKVSNRFSGVPDRFSGSGSGTDFTLKISRVEAEDVGVYYCGQGTQVPYTFGQGTKLEIK
B7: CE115HA000 Y58A (antibody, name in Kabat numbering, V domains shown)
VH: QVQLVESGGGVVQPGRSLRLSCAASGFTFSNAWMHWVRQAPGKGLEWVAQIKAKSNNYATAYAESVKGRFTISRDDSKNSLYLQMNSLKTEDTAVYYCRYVHYGAYYGVDAWGQGTTVTVSS
VL: DIVMTQSPLSLPVTPGEPASISCRSSQSLVHSNRNTYLHWYQQKPGQAPRLLIYKVSNRFSGVPDRFSGSGSGTDFTLKISRVEAEDVGVYYCGQGTQVPYTFGQGTKLEIK
B8: CE115HA000 V100cP (antibody, name in Kabat numbering, V domains shown)
VH: QVQLVESGGGVVQPGRSLRLSCAASGFTFSNAWMHWVRQAPGKGLEWVAQIKAKSNNYATYYAESVKGRFTISRDDSKNSLYLQMNSLKTEDTAVYYCRYVHYGAYYGPDAWGQGTTVTVSS
VL: DIVMTQSPLSLPVTPGEPASISCRSSQSLVHSNRNTYLHWYQQKPGQAPRLLIYKVSNRFSGVPDRFSGSGSGTDFTLKISRVEAEDVGVYYCGQGTQVPYTFGQGTKLEIK
B9: CE115HA000 V11L (antibody, name in Kabat numbering, V domains shown)
VH: QVQLVESGGGLVQPGRSLRLSCAASGFTFSNAWMHWVRQAPGKGLEWVAQIKAKSNNYATYYAESVKGRFTISRDDSKNSLYLQMNSLKTEDTAVYYCRYVHYGAYYGVDAWGQGTTVTVSS
VL: DIVMTQSPLSLPVTPGEPASISCRSSQSLVHSNRNTYLHWYQQKPGQAPRLLIYKVSNRFSGVPDRFSGSGSGTDFTLKISRVEAEDVGVYYCGQGTQVPYTFGQGTKLEIK
B10: CE115HA000 T57I (antibody, name in Kabat numbering, V domains shown)
VH: QVQLVESGGGVVQPGRSLRLSCAASGFTFSNAWMHWVRQAPGKGLEWVAQIKAKSNNYAIYYAESVKGRFTISRDDSKNSLYLQMNSLKTEDTAVYYCRYVHYGAYYGVDAWGQGTTVTVSS
VL: DIVMTQSPLSLPVTPGEPASISCRSSQSLVHSNRNTYLHWYQQKPGQAPRLLIYKVSNRFSGVPDRFSGSGSGTDFTLKISRVEAEDVGVYYCGQGTQVPYTFGQGTKLEIK
B11: CE115HA000 Y55D (antibody, name in Kabat numbering, V domains shown)
VH: QVQLVESGGGVVQPGRSLRLSCAASGFTFSNAWMHWVRQAPGKGLEWVAQIKAKSNNDATYYAESVKGRFTISRDDSKNSLYLQMNSLKTEDTAVYYCRYVHYGAYYGVDAWGQGTTVTVSS
VL: DIVMTQSPLSLPVTPGEPASISCRSSQSLVHSNRNTYLHWYQQKPGQAPRLLIYKVSNRFSGVPDRFSGSGSGTDFTLKISRVEAEDVGVYYCGQGTQVPYTFGQGTKLEIK
B12: CE115HA000 T57K (antibody, name in Kabat numbering, V domains shown)
VH: QVQLVESGGGVVQPGRSLRLSCAASGFTFSNAWMHWVRQAPGKGLEWVAQIKAKSNNYAKYYAESVKGRFTISRDDSKNSLYLQMNSLKTEDTAVYYCRYVHYGAYYGVDAWGQGTTVTVSS
VL: DIVMTQSPLSLPVTPGEPASISCRSSQSLVHSNRNTYLHWYQQKPGQAPRLLIYKVSNRFSGVPDRFSGSGSGTDFTLKISRVEAEDVGVYYCGQGTQVPYTFGQGTKLEIK
B13: CE115HA000 V100cA (antibody, name in Kabat numbering, V domains shown)
VH: QVQLVESGGGVVQPGRSLRLSCAASGFTFSNAWMHWVRQAPGKGLEWVAQIKAKSNNYATYYAESVKGRFTISRDDSKNSLYLQMNSLKTEDTAVYYCRYVHYGAYYGADAWGQGTTVTVSS
VL: DIVMTQSPLSLPVTPGEPASISCRSSQSLVHSNRNTYLHWYQQKPGQAPRLLIYKVSNRFSGVPDRFSGSGSGTDFTLKISRVEAEDVGVYYCGQGTQVPYTFGQGTKLEIK
B14: CE115HA000 V95S (antibody, name in Kabat numbering, V domains shown)
VH: QVQLVESGGGVVQPGRSLRLSCAASGFTFSNAWMHWVRQAPGKGLEWVAQIKAKSNNYATYYAESVKGRFTISRDDSKNSLYLQMNSLKTEDTAVYYCRYSHYGAYYGVDAWGQGTTVTVSS
VL: DIVMTQSPLSLPVTPGEPASISCRSSQSLVHSNRNTYLHWYQQKPGQAPRLLIYKVSNRFSGVPDRFSGSGSGTDFTLKISRVEAEDVGVYYCGQGTQVPYTFGQGTKLEIK
B15: CE115HA000 V95D (antibody, name in Kabat numbering, V domains shown)
VH: QVQLVESGGGVVQPGRSLRLSCAASGFTFSNAWMHWVRQAPGKGLEWVAQIKAKSNNYATYYAESVKGRFTISRDDSKNSLYLQMNSLKTEDTAVYYCRYDHYGAYYGVDAWGQGTTVTVSS
VL: DIVMTQSPLSLPVTPGEPASISCRSSQSLVHSNRNTYLHWYQQKPGQAPRLLIYKVSNRFSGVPDRFSGSGSGTDFTLKISRVEAEDVGVYYCGQGTQVPYTFGQGTKLEIK
B16: CE115HA000 W33A (antibody, name in Kabat numbering, V domains shown)
VH: QVQLVESGGGVVQPGRSLRLSCAASGFTFSNAAMHWVRQAPGKGLEWVAQIKAKSNNYATYYAESVKGRFTISRDDSKNSLYLQMNSLKTEDTAVYYCRYVHYGAYYGVDAWGQGTTVTVSS
VL: DIVMTQSPLSLPVTPGEPASISCRSSQSLVHSNRNTYLHWYQQKPGQAPRLLIYKVSNRFSGVPDRFSGSGSGTDFTLKISRVEAEDVGVYYCGQGTQVPYTFGQGTKLEIK
B17: CE115HA000 T57N (antibody, name in Kabat numbering, V domains shown)
VH: QVQLVESGGGVVQPGRSLRLSCAASGFTFSNAWMHWVRQAPGKGLEWVAQIKAKSNNYANYYAESVKGRFTISRDDSKNSLYLQMNSLKTEDTAVYYCRYVHYGAYYGVDAWGQGTTVTVSS
VL: DIVMTQSPLSLPVTPGEPASISCRSSQSLVHSNRNTYLHWYQQKPGQAPRLLIYKVSNRFSGVPDRFSGSGSGTDFTLKISRVEAEDVGVYYCGQGTQVPYTFGQGTKLEIK
B18: CE115HA000 Y55G (antibody, name in Kabat numbering, V domains shown)
VH: QVQLVESGGGVVQPGRSLRLSCAASGFTFSNAWMHWVRQAPGKGLEWVAQIKAKSNNGATYYAESVKGRFTISRDDSKNSLYLQMNSLKTEDTAVYYCRYVHYGAYYGVDAWGQGTTVTVSS
VL: DIVMTQSPLSLPVTPGEPASISCRSSQSLVHSNRNTYLHWYQQKPGQAPRLLIYKVSNRFSGVPDRFSGSGSGTDFTLKISRVEAEDVGVYYCGQGTQVPYTFGQGTKLEIK
B19: CE115HA000 W33L (antibody, name in Kabat numbering, V domains shown)
VH: QVQLVESGGGVVQPGRSLRLSCAASGFTFSNALMHWVRQAPGKGLEWVAQIKAKSNNYATYYAESVKGRFTISRDDSKNSLYLQMNSLKTEDTAVYYCRYVHYGAYYGVDAWGQGTTVTVSS
VL: DIVMTQSPLSLPVTPGEPASISCRSSQSLVHSNRNTYLHWYQQKPGQAPRLLIYKVSNRFSGVPDRFSGSGSGTDFTLKISRVEAEDVGVYYCGQGTQVPYTFGQGTKLEIK
B20: CE115HA000 W33F (antibody, name in Kabat numbering, V domains shown)
VH: QVQLVESGGGVVQPGRSLRLSCAASGFTFSNAFMHWVRQAPGKGLEWVAQIKAKSNNYATYYAESVKGRFTISRDDSKNSLYLQMNSLKTEDTAVYYCRYVHYGAYYGVDAWGQGTTVTVSS
VL: DIVMTQSPLSLPVTPGEPASISCRSSQSLVHSNRNTYLHWYQQKPGQAPRLLIYKVSNRFSGVPDRFSGSGSGTDFTLKISRVEAEDVGVYYCGQGTQVPYTFGQGTKLEIK

target: T1, CD3ε homodimer protein (human, UniProt P07766 23-126, limits assumed, sulfo-tag or biotin label in some ECL assays); experiment: SPR, CD3ε homodimer on chip;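 further: biacore SPR with antibody variants flowed as analyte over amine-coupled CD3ε homodimer on a CM chip, bound amount of each single-residue H chain variant over that of parent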
T1 construct: also called human CD3ε homodimer protein; CD3 (CD3ε)
T1 sequence (P07766 23-126 limits assumed): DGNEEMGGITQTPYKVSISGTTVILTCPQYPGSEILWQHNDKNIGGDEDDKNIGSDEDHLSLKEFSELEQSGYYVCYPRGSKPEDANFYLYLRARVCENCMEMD

In order of falling “ratio of amounts bound vs CE115HA000” value:
1. B12  1.32
2. B9  1
3. B6  0.98
4. B17  0.97
5. B1  0.91
6. B8  0.8
7. B2  0.66
8. B20  0.65
9. B10  0.61
10. B18  0.55
11. B13  0.48
12. B11  0.45
13. B4  0.26
14. B15  0.24
15. B7  0.22
16. B14  0.22
17. B5  0.13
18. B3  0.1
19. B16  0.1
20. B19  0.1
